Among the data in publication PMC3072069 are binding result and Kd values, retold here.

Data set [1] has as its target T1, CFP1 CXXC domain (Homo sapiens, UniProt Q9P0U4 161-222). As to the kind of experiment: crystal structure.
For data set [2], the target named is T1, CFP1 CXXC domain. Description: ITC. A general note: In ITC the heat of successive injections is recorded.
The target of data set [3] is T1, CFP1 CXXC domain. As to the kind of experiment: EMSA.
In a further data set the target is CFP1 CXXC R213A (Homo sapiens, UniProt Q9P0U4 161-222, R213A). As to the kind of experiment: ITC.
CFP1 CXXC R213A, sequence (Q9P0U4 161-222 R213A): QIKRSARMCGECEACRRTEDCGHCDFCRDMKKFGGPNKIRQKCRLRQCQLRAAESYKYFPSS
The next data set has as its target CFP1 CXXC Y216A (Homo sapiens, UniProt Q9P0U4 161-222, Y216A). Description: ITC.
For data set [4], the target named is CFP1 CXXC domain, longer construct (Homo sapiens, UniProt Q9P0U4 152-222). Description: ITC.
CFP1 CXXC domain, longer construct, sequence (Q9P0U4 152-222): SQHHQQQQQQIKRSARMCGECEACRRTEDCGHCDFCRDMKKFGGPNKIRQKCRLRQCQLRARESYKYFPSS

T1 sequence (Q9P0U4 161-222): as the sequence (Q9P0U4 161-222 R213A) above, with A53R counted along it
CFP1 CXXC Y216A, sequence (Q9P0U4 161-222 Y216A): as the sequence (Q9P0U4 161-222 R213A) above, with A53R, Y56A counted along it

B1: ACGT (dsDNA)
DNA 1: GCCAACGTTGGC
DNA 2: GCCAACGTTGGC
With B1, in the data set with CFP1 CXXC domain [1], the binding result is “binds”.

B2: ACGG (dsDNA)
DNA 1: GCCAACGGTGGC
DNA 2: GCCACCGTTGGC
In general, Kd refers to the free concentration of one partner at which half of the binding sites on the other are occupied at equilibrium, for simple one-to-one binding. Read a low Kd as tighter binding. On to B2, for which the equilibrium dissociation constant (Kd) with CFP1 CXXC domain [2] amounted to 2.5 ± 0.2 µM.

B3: TCGA (dsDNA)
DNA 1: GCCATCGATGGC
DNA 2: GCCATCGATGGC
As to B3, the binding result with CFP1 CXXC domain [1] is “binds”.

B4: GC (GGCC), no CpG (dsDNA)
DNA 1: GCCAGGCCTGGC
DNA 2: GCCAGGCCTGGC
As to B4, in the data set with CFP1 CXXC domain [3], the binding result was “no binding”.

B5: GCGG (dsDNA)
DNA 1: GCCAGCGGTGGC
DNA 2: GCCACCGCTGGC
As for B5, in the data set with CFP1 CXXC domain [2], the affinity, expressed as Kd, was 3 ± 0.2 µM.

B6: TCGT (dsDNA)
DNA 1: GCCATCGTTGGC
DNA 2: GCCAACGATGGC
B6: the binding result with CFP1 CXXC domain [1] is “binds”.

B7: CCGG2 (dsDNA)
DNA 1: GCCCCCGGGGGC
DNA 2: GCCCCCGGGGGC
In turn, B7 returned a Kd with CFP1 CXXC domain [2] of 4.4 ± 0.3 µM.

B8: CCGG1 (dsDNA)
DNA 1: GCCACCGGTGGC
DNA 2: GCCACCGGTGGC
On to B8, for which the Kd with CFP1 CXXC domain [2] came to 3.5 ± 0.3 µM; in the data set with CFP1 CXXC R213A, 179 ± 30 µM; with CFP1 CXXC Y216A it was 11 ± 2 µM; in data set [4] it was 2.7 ± 0.3 µM.
